Reference: patent US20180256731A1, “NOVEL INSULIN ANALOG AND USE THEREOF” (HANMI PHARM. CO., LTD, priority 2013, published 2018)

Experiments:
Insulin receptor [1] = assay: SPR (BIACORE 3000), receptor on CM5 chip; Test 4
Insulin receptor [2] = assay: SPR (BIACORE 3000), receptor on CM5 chip; Test 1
Insulin receptor [3] = assay: SPR (BIACORE 3000), receptor on CM5 chip; Test 5
Insulin receptor [4] = assay: SPR (BIACORE 3000), receptor on CM5 chip; Test 2
Insulin receptor [5] = assay: SPR (BIACORE 3000), receptor on CM5 chip; Test 3

koff (Insulin receptor [1]): 0.0124 s⁻¹ | kon (Insulin receptor [1]): 290000 M⁻¹ s⁻¹ | koff (Insulin receptor [2]): 0.00747 s⁻¹ | kon (Insulin receptor [2]): 221000 M⁻¹ s⁻¹ | koff (Insulin receptor [3]): 0.0097 s⁻¹ | kon (Insulin receptor [3]): 200000 M⁻¹ s⁻¹ | koff (Insulin receptor [4]): 0.0101 s⁻¹ | kon (Insulin receptor [4]): 229000 M⁻¹ s⁻¹ | Kd (Insulin receptor [5]): 63.5 nM | koff (Insulin receptor [5]): 0.0107 s⁻¹ | kon (Insulin receptor [5]): 176000 M⁻¹ s⁻¹
Substance: Native human insulin (ligand)
